Source: patent US20210347848A1 (ALX ONCOLOGY, published 2021)
Like-named read-outs stand apart in the source and are kept apart here.

T1: mouse CD47 (mouse, UniProt Q61735 19-140, limits assumed)
T1 construct: Soluble analyte in SPR; construct not described
T1 sequence (looked up): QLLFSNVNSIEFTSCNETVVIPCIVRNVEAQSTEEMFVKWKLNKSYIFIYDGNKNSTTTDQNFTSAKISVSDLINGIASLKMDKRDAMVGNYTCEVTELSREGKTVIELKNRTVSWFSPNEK


What was measured:
human CD47 [1] = molecular target: T2, human CD47 (human, UniProt Q08722 19-135); test: SPR, decoy captured on biotinylated Protein A, CD47 as analyte, 25 C
T2 construct: Soluble analyte in SPR; also called hCD47
Procedure: (§1) The binding affinities each decoy polypeptides for CD47 from various species (e.g., human CD47, cynomolgus monkey CD47, and mouse CD47) were determined using indirect capture via biotinylated Protein A (via NLC chip). All experiments were performed at 25° C. using a Surface Plasmon Resonance (SPR)-based ProteOn XPR36 biosensor (BioRad, Inc., Hercules, Calif.). The running buffer was PBS at pH 7.4 with 0.01% Tween-20 (PBST+). All analytes were used at their nominal concentrations as determined by A₂₈₀ absorbance and using their molar calculated extinction coefficients.
(§2) As a first step, 15 μg/mL biotinylated protein A (Thermofisher) was injected at 30 μL/min for 120 seconds over the NLC chip to obtain an immobilization response of about 1000-1200 RUs. Next, decoy polypeptides (about 100-160 nM) were injected for 80 seconds at 30 μL/min. The CD47 analytes (from human, cynomolgus monkey, and mouse) were subsequently injected in a “one-shot” kinetic mode at nominal concentrations of 100 nM, 33 nM, 11 nM, 3.7 nM, 1.2 nM, and 0 nM. Association times were monitored for 60 seconds at 25 μL/min, and dissociation times were monitored for 500 seconds. The surfaces were regenerated with a 2:1 v/v blend of Pierce IgG elution buffer/4M NaCl. Biosensor data were double-referenced by subtracting the interspot data (containing no immobilized protein) from the reaction spot data (immobilized protein) and then subtracting the response of a buffer “blank” analyte injection from that of an analyte injection. Double-referenced data were fit globally to a simple Langmuir model and the KD value was calculated from the ratio of the apparent kinetic rate constants (KD=kd/kₐ).

cynomolgus monkey CD47 = molecular target: T3, cynomolgus monkey CD47 (cynomolgus monkey, UniProt A0A2K5X523 19-135); test: as above
T3 construct: Soluble analyte in SPR; construct not described; also called Cyno CD47
Procedure: as §1, §2

human CD47 [2] = molecular target: T2, human CD47; test: as above; remark: listed apart in the source
Procedure: as §1, §2

mouse CD47 = molecular target: T1, mouse CD47; test: as above
Procedure: as §1, §2

human CD47 [3] = molecular target: T2, human CD47; test: SPR; ratio against decoy polypeptide R (wild type SIRPγ D1 domain)
Procedure: as §1, §2

T2 sequence (Q08722 other isoform, or with tags, fused parts or gaps limits assumed): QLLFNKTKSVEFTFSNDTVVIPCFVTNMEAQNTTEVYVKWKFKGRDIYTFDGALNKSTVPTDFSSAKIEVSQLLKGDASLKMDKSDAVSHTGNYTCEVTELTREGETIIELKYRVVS

Row | Binder | Kd (human CD47 [1]) | Kd (cynomolgus monkey CD47) | Kd (human CD47 [2]) | Kd (mouse CD47) | Fold improvement in KD vs wild type (human CD47 [3])
1 | Decoy polypeptide Q (Fc fusion) EEELQIIQPDKSISVAAGESATLHCTITSLFPVGPIQWFRGAGPGRVLIYNQRQGPFPRVTTVSDTTKRNNMDFSIRISNITPADAGTYYCIKFRKGSPDDVEFKSGAGTELSVRAKPSDKTHTCPPCPAPEAAGAPSVFLFPPKPKDTLMISRTPEVTCVVVDVSHEDPEVKFNWYVDGVEVHNAKTKPREEQYASTYRVVSVLTVLHQDWLNGKEYKCKVSNKALPAPIEKTISKAKGQPREPQVYTLPPSREEMTKNQVSLTCLVKGFYPSDIAVEWESNGQPENNYKTTPPVLDSDGSFFLYSKLTVDKSRWQQGNVFSCSVMHEALHNHYTQKSLSLSPG | 0.213 nM | 0.106 nM | 0.0785 nM | 24.1 nM | –
2 | Decoy polypeptide P (Fc fusion) EDELQIIQPEKSVSVAAGESATLRCAITSLFPVGPIQWFRGAGAGRVLIYNQRQGPFPRVTTVSETTKRNNLDFSISISNITPADAGTYYCIKFRKGSPDDVEFKSGAGTELSVRAKPSDKTHTCPPCPAPEAAGAPSVFLFPPKPKDTLMISRTPEVTCVVVDVSHEDPEVKFNWYVDGVEVHNAKTKPREEQYASTYRVVSVLTVLHQDWLNGKEYKCKVSNKALPAPIEKTISKAKGQPREPQVYTLPPSREEMTKNQVSLTCLVKGFYPSDIAVEWESNGQPENNYKTTPPVLDSDGSFFLYSKLTVDKSRWQQGNVFSCSVMHEALHNHYTQKSLSLSPG | 0.35 nM | 0.334 nM | 0.288 nM | 146 nM | –
3 | Decoy polypeptide U (Fc fusion, positive control) EEELQIIQPDKSVLVAAGETATLRCTITSLFPVGPIQWFRGAGPGRELIYNQREGPFPRVTTVSDTTKRNNMDFSIRIGAITPADAGTYYCVKFRKGSPDDVEFKSGAGTELSVRAKPSDKTHTCPPCPAPEAAGAPSVFLFPPKPKDTLMISRTPEVTCVVVDVSHEDPEVKFNWYVDGVEVHNAKTKPREEQYASTYRVVSVLTVLHQDWLNGKEYKCKVSNKALPAPIEKTISKAKGQPREPQVYTLPPSREEMTKNQVSLTCLVKGFYPSDIAVEWESNGQPENNYKTTPPVLDSDGSFFLYSKLTVDKSRWQQGNVFSCSVMHEALHNHYTQKSLSLSPG | – | 0.224 nM | 0.193 nM | 7.82 nM | –
4 | Decoy polypeptide A (Fc fusion, expressed in Expi293 cells) EEELQIIQPEKLLLVTVGKTATLHCTITSLFPVGPVLWFRGVGPGRVLIYNQRQGPFPRVTTVSDTTKRNNMDFSIRISSITPADVGTYYCIKFRKGSPENVEFKSGPGTEMALGAKPSDKTHTCPPCPAPEAAGAPSVFLFPPKPKDTLMISRTPEVTCVVVDVSHEDPEVKFNWYVDGVEVHNAKTKPREEQYASTYRVVSVLTVLHQDWLNGKEYKCKVSNKALPAPIEKTISKAKGQPREPQVYTLPPSREEMTKNQVSLTCLVKGFYPSDIAVEWESNGQPENNYKTTPPVLDSDGSFFLYSKLTVDKSRWQQGNVFSCSVMHEALHNHYTQKSLSLSPG | 74.8 nM | – | – | – | –
5 | Decoy polypeptide F (Fc fusion) EEELQIIQPEKLLLVTVGKTATLHCTITSHFPVGPIQWFRGVGPGRVLIYNQKDGHFPRVTTVSDGTKRNNMDFSIRISSITPADVGTYYCVKFRKGSPEDVEFKSGPGTEMALGAKPSDKTHTCPPCPAPEAAGAPSVFLFPPKPKDTLMISRTPEVTCVVVDVSHEDPEVKFNWYVDGVEVHNAKTKPREEQYASTYRVVSVLTVLHQDWLNGKEYKCKVSNKALPAPIEKTISKAKGQPREPQVYTLPPSREEMTKNQVSLTCLVKGFYPSDIAVEWESNGQPENNYKTTPPVLDSDGSFFLYSKLTVDKSRWQQGNVFSCSVMHEALHNHYTQKSLSLSPG | 0.881 nM | – | – | – | 2490 fold
6 | Decoy polypeptide D (Fc fusion) EEELQIIQPEKLLLVTVGKTATLHCTITSLFPVGPIQWFRGVGPGRVLIYNQKDGHFPRVTTVSDGTKRNNMDFSIRISSITPADVGTYYCVKFRKGSPEDVEFKSGPGTEMALGAKPSDKTHTCPPCPAPEAAGAPSVFLFPPKPKDTLMISRTPEVTCVVVDVSHEDPEVKFNWYVDGVEVHNAKTKPREEQYASTYRVVSVLTVLHQDWLNGKEYKCKVSNKALPAPIEKTISKAKGQPREPQVYTLPPSREEMTKNQVSLTCLVKGFYPSDIAVEWESNGQPENNYKTTPPVLDSDGSFFLYSKLTVDKSRWQQGNVFSCSVMHEALHNHYTQKSLSLSPG | 1.8 nM | – | – | – | 1220 fold
7 | Decoy polypeptide J (Fc fusion) EEELQIIQPEKLLLVTVGKTATLHCTITSLLPVGPIQWFRGVGPGRELIYNQRDGPFPRVTTVSDGTKRNNMDFSIRISSITPADVGTYYCVKFRKGTPEDVEFKSGPGTEMALGAKPSDKTHTCPPCPAPEAAGAPSVFLFPPKPKDTLMISRTPEVTCVVVDVSHEDPEVKFNWYVDGVEVHNAKTKPREEQYASTYRVVSVLTVLHQDWLNGKEYKCKVSNKALPAPIEKTISKAKGQPREPQVYTLPPSREEMTKNQVSLTCLVKGFYPSDIAVEWESNGQPENNYKTTPPVLDSDGSFFLYSKLTVDKSRWQQGNVFSCSVMHEALHNHYTQKSLSLSPG | 0.275 nM | 0.33 nM | 0.398 nM | 1.3 nM | 7960 fold
8 | Decoy polypeptide L (Fc fusion) EEELQLIQPEKLLLVTVGKTATLHCTITSLFPPGPIQWFRGVGPGRVLIYNQKDGPFPRVTTVSDGTKRNNMDFSIRISSITPADVGTYYCVKFRKGIPEDVEFKSGPGTEMALGAKPSDKTHTCPPCPAPEAAGAPSVFLFPPKPKDTLMISRTPEVTCVVVDVSHEDPEVKFNWYVDGVEVHNAKTKPREEQYASTYRVVSVLTVLHQDWLNGKEYKCKVSNKALPAPIEKTISKAKGQPREPQVYTLPPSREEMTKNQVSLTCLVKGFYPSDIAVEWESNGQPENNYKTTPPVLDSDGSFFLYSKLTVDKSRWQQGNVFSCSVMHEALHNHYTQKSLSLSPG | 4.02 nM | – | – | – | 545 fold
9 | Decoy polypeptide G (Fc fusion) EEELQIIQPEKLLLVTVGKTATLHCTITSLFPVGPVLWFRGVGPGRVLIYNQRQGPFPRVTTVSDTTKRNNMDFSIRISSITPADVGTYYCVKFRKGTPEDVEFKSGPGTEMALGAKPSDKTHTCPPCPAPEAAGAPSVFLFPPKPKDTLMISRTPEVTCVVVDVSHEDPEVKFNWYVDGVEVHNAKTKPREEQYASTYRVVSVLTVLHQDWLNGKEYKCKVSNKALPAPIEKTISKAKGQPREPQVYTLPPSREEMTKNQVSLTCLVKGFYPSDIAVEWESNGQPENNYKTTPPVLDSDGSFFLYSKLTVDKSRWQQGNVFSCSVMHEALHNHYTQKSLSLSPG | 1.56 nM | – | – | – | 1400 fold
10 | Decoy polypeptide B (Fc fusion) EEELQIIQPEKLLLVTVGKTATLHCTITSLFPVGPIQWFRGVGPGRVLIYNQRDGPFPRVTTVSDGTKRNNMDFSIRISSITPADVGTYYCVKFRKGTPEDVEFKSGPGTEMALGAKPSDKTHTCPPCPAPEAAGAPSVFLFPPKPKDTLMISRTPEVTCVVVDVSHEDPEVKFNWYVDGVEVHNAKTKPREEQYASTYRVVSVLTVLHQDWLNGKEYKCKVSNKALPAPIEKTISKAKGQPREPQVYTLPPSREEMTKNQVSLTCLVKGFYPSDIAVEWESNGQPENNYKTTPPVLDSDGSFFLYSKLTVDKSRWQQGNVFSCSVMHEALHNHYTQKSLSLSPG | 0.32 nM | – | – | – | 6840 fold
11 | Decoy polypeptide C (Fc fusion) EEELQIIQPEKLLLVTVGKTATLHCTITSLFPVGPIQWFRGVGPGRVLIYNQKDGPFPRVTTVSDGTKRNNMDFSIRISSITPADVGTYYCVKFRKGSPEDVEFKSGPGTEMALGAKPSDKTHTCPPCPAPEAAGAPSVFLFPPKPKDTLMISRTPEVTCVVVDVSHEDPEVKFNWYVDGVEVHNAKTKPREEQYASTYRVVSVLTVLHQDWLNGKEYKCKVSNKALPAPIEKTISKAKGQPREPQVYTLPPSREEMTKNQVSLTCLVKGFYPSDIAVEWESNGQPENNYKTTPPVLDSDGSFFLYSKLTVDKSRWQQGNVFSCSVMHEALHNHYTQKSLSLSPG | 0.243 nM | 0.274 nM | 0.243 nM | 0.905 nM | 9010 fold
12 | Decoy polypeptide H (Fc fusion) EEELQIIQPEKLLLVTVGKTATLHCTITSLFPVGPIQWFRGVGPGRELIYNAREGRFPRVTTVSDLTKRNNMDFSIRISSITPADVGTYYCVKFRKGSPEDVEFKSGPGTEMALGAKPSDKTHTCPPCPAPEAAGAPSVFLFPPKPKDTLMISRTPEVTCVVVDVSHEDPEVKFNWYVDGVEVHNAKTKPREEQYASTYRVVSVLTVLHQDWLNGKEYKCKVSNKALPAPIEKTISKAKGQPREPQVYTLPPSREEMTKNQVSLTCLVKGFYPSDIAVEWESNGQPENNYKTTPPVLDSDGSFFLYSKLTVDKSRWQQGNVFSCSVMHEALHNHYTQKSLSLSPG | 0.483 nM | – | – | – | 4530 fold
